From US20250145730A1 (SHANGHAI BAO PHARMACEUTICALS, published 2025)

Molecular target: T1, human FcRn (human, UniProt P55899 24-297; P61769 21-119)
T1 construct: also called hFcRn
Test: BLI, acidic conditions, against the wild-type antibody

fold of the wild-type antibody's affinity: ≤ 3 fold
B1: Antibody 8 (antibody, human IgG1, kappa)
heavy: not shown
light: DIVMTQSHLSMSTSLGDPVSITCKASQDVSTVVAWYQQKPGQSPRRLIYSASYRYIGVPDRFTGSGAGTDFTFTISSVQAEDLAVYYCQQHYSPPYTFGGGTKLEIKRTVAAPSVFIFPPSDEQLKSGTASVVCLLNNFYPREAKVQWKVDNALQSGNSQESVTEQDSKDSTYSLSSTLTLSKADYEKHKVYACEVTHQGLSSPVTKSFNRGEC
notes: also called antibody 3-Fucose
